Values belong to the substance of their own block, whether it stands above or below them. No end group written: not given here. *: point of attachment. maleimido‑mono‑amide‑DOTA = O=C(O)CN1CCN(CC(=O)O)CCN(CC(=O)NCCN2C(=O)CC(*)C2=O)CCN(CC(=O)O)CC1; NAM = N-norbiotinyl-β-maleimidopropionylamide, biotin derivative conjugated to Cys thiol
Columns and labels:
[1] = biological target: T1, VCAM-1 expressed on HUVEC (Homo sapiens, UniProt P19320); experiment: In vitro test of 68Ga-MacroP on HUVEC (LigandTracer radioactive uptake); assay type: cell-based; set-up: endogenous in cells; host or cells: primary HUVEC stimulated with 10 ng/mL TNF-alpha for 4 h; details: HUVEC activated with 10 ng/mL TNF-α for 4 h vs unstimulated HUVEC; 5 MBq 68Ga-MacroP in 3 mL saline; LigandTracer White
T1 sequence (P19320 25-739): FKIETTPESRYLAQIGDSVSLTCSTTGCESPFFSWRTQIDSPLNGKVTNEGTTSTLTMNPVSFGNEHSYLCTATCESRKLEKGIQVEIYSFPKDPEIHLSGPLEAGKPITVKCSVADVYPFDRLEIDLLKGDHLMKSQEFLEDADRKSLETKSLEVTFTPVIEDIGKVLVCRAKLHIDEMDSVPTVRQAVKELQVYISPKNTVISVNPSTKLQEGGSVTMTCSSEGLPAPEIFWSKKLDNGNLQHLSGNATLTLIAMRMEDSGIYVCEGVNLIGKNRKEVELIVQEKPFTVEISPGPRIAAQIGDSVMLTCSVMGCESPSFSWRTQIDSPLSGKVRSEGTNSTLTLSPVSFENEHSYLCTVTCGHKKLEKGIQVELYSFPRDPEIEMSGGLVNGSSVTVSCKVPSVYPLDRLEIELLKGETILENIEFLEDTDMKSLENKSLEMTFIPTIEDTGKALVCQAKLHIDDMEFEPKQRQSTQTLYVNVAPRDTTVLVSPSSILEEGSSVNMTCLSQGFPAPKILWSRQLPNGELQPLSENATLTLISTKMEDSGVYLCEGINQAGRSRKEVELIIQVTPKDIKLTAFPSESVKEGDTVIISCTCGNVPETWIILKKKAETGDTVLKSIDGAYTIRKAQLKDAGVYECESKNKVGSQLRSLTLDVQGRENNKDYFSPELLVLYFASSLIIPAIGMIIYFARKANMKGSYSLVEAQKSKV
Text: (§1) Human Umbilical Vein Endothelial Cells (HUVEC) were obtained from human umbilical cords collected from full-term women immediately after cesarean section at the Gynecology and Obstetrics Department of International Evangelical Hospital in Genoa (Italy), after patients’ informed consent and the approval (register number 2/2010-19, February, 2010) by the Institutional Ethical Committee. Each cord vein was individually processed for obtaining endothelial cells through mechanical dissociation of the tissue and collagenase digestion. Cells were maintained in culture medium EndoGRO-LS Complete Culture Media Kit seeded on attachment factor-coated plates. For labeling experiments, 8 × 10^5 cells were plated on Petri dishes in EndoGRO Basal Medium (SCME-BM) and allowed to attach overnight prior stimulation with 10 ng/mL of TNF-alpha (TNF-α) for 4 h. Cells without TNF-α treatment were used as control (Figures S19 and S20).
The binding assay of ^68Ga-MacroP with VCAM-1 expressed on HUVEC was monitored using LigandTracer® White (Ridgeview Instruments AB, Uppsala, Sweden) according to our previously validated procedure. Briefly, the tool consists of a beta-emission detector and a rotating platform harboring a standard Petri dish. […] The binding of radioactivity to cell-containing areas and reference areas was recorded. […]

avidin = avidin (Gallus gallus, UniProt P02701); experiment: NAMP-avidin binding (ultrafiltration, RP-HPLC, capillary electrophoresis); details: approx. 0.17 mM NAMP with avidin 2.5 μg/μL, 37 °C, 2 h; 30 kD cut-off ultrafiltration; RP-HPLC of ultrafiltrate, capillary electrophoresis of retentate
Experimental: Avidin was dissolved in ultrapure water (2.5 μg/μL). This solution (100 μL) was mixed with a NAMP solution (approx. 0.17 mM) and heated at 37 °C under 400 rpm orbital shaking for 2 h. The mixture was placed in an ultrafiltration system with a regenerated cellulose membrane (30 kD cut-off), and washed with 250 μL of ultrapure water at 1400 g for 20 min at 15 °C. By inverted spinning at 1000 g for 3 min, the retentate was recovered and analyzed by capillary electrophoresis (Agilent Technologies 7100 Capillary Electrophoresis, Santa Clara, CA, USA). Separations were performed in a bare fused-silica capillary 50 μm (i.d.) × 64.5 cm (L) × 50 cm (L), activated with 1 M aqueous NaOH, 0.1 M aqueous NaOH and washed with ultrapure water. The conditioning and the run were carried out with 50 mM sodium phosphate buffer (pH 2.5), used also for 120 s preconditioning before injection. The gradient voltage was from 0 to 30 kV in 0.2 min.

[2] = biological target: T1, VCAM-1 expressed on HUVEC; experiment: In vitro test of NAMP-avidin-68Ga-BisDOTA on HUVEC (three-step pretargeting, LigandTracer); assay type: cell-based; set-up: endogenous in cells; host or cells: primary HUVEC stimulated with TNF-alpha
Text: as §1, with “Cells without TNF-α treatment were used as control (Figures S19 and S20).” left out
After removing the culture medium containing TNF-α, stimulated HUVEC were incubated at 37 °C with 4 nmol of NAMP for 20 min and afterwards with 3.5 nmol of NeutrAvidin™ for 10 min. After washing and replacing the culture medium with 3 mL of the saline solution containing 5MBq of ^68Ga-BisDOTA (specific activity 37.0 MBq/nmol), the binding assay of ^68Ga-BisDOTA with the NAMP-avidin complex, bound to the VCAM-1 expressed on HUVEC, was monitored using the same procedure described in Section 2.3.5.

[3] = deglycosylated form of avidin; cited from earlier work
Experimental: After radiolabeling with ^68Ga, both MacroP and NAMP were tested on human endothelial cells. Quantitative PCR and Fluorescence-Activated Cell Sorting (FACS) analysis were performed prior to the experiments, to assess the expression of VCAM-1 on HUVEC. To avoid excessive stress for the cells, they were activated with TNF-α for 4 h only. In the three-step pretargeting test, a commercially available deglycosylated form of avidin (NeutrAvidin™) was employed because it is characterized by reduced non-specific binding, low isoelectric point (~6.3) and low production cost with respect to ...

Sequence of avidin (P02701 25-152, species assumed): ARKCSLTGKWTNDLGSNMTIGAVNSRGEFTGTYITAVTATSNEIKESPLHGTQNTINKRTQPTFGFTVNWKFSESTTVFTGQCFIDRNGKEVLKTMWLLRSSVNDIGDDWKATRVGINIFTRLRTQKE

radiosignal uptake of activated cells compared to control cells [1]: 4 fold
Substance: MacroP: reaction product of maleimido-mono-amide-DOTA with the cysteine thiol of the VCAM-1-binding peptide VHPKQHRGGSKGC (VHPKQHRGGSKGC(maleimido‑mono‑amide‑DOTA))

avidin binding: unbound NAMP in the ultrafiltrate (avidin): no unbound NAMP could be detected
radioactive uptake of activated cells compared to the controls ([2]; HUVEC activated with 10 ng/mL TNF-α for 4 h vs unstimulated, 4 nmol NAMP 20 min at 37 °C, 3.5 nmol NeutrAvidin 10 min, then 5 MBq 68Ga-BisDOTA in 3 mL saline): 12 fold
Substance: NAMP: biotin derivative: NAM (N-norbiotinyl-β-maleimidopropionylamide) conjugated to the cysteine thiol of VHPKQHRGGSKGC, for three-step pretargeting (VHPKQHRGGSKGC(NAM))
uptake of radioactivity, activated cells versus control cells (in words) ([2]; TNF-α activated HUVEC vs control, NAMP, then NeutrAvidin and 68Ga-BisDOTA, p < 0.05): evidently higher uptake of radioactivity compared to the control cells

Substance: NeutrAvidin™: commercially available deglycosylated form of avidin
isoelectric point [3]: ~ 6.3
